Entries after “also recorded” stand apart in the source; their conditions may differ.

The target in one assay is T1, HLA-A2 molecule (Homo sapiens, UniProt P04439, D140Y/D185E/D98H/E176V/E277Q/G131W/G231S/I119V/I121R/I166T/I218V/L300P/L318F/N151K/N90K/P208A/P217A/Q86G/Q94H/R138H/R169H/T345S).
T1 construct: The T2 cell line is deficient for TAP1 and TAP2 transporter proteins and expresses low levels of HLA-A2; endogenous in cells; host or cells: T2 cell line (TAP1/TAP2-deficient)
Put plainly: T2 binding assay (HLA-A2 up-regulation on TAP-deficient T2 cells). As to conditions: for FI0.5: peptide concentration that increases HLA-A2.1 expression by 50% over no peptide; for binding affinity for the HLA-A2 molecule (in words): T2 binding assay. As to the method:
FIG. 1 is a graph showing binding affinity of POTE peptides to HLA-A2 molecules. Peptides were dissolved in DMSO in double-distilled water and different concentrations of peptides were added into the culture of TAP-deficient T2 cells. After overnight culture of the cells in medium supplemented with β2-microglobulin, cells were stained with anti-HLA-A2. HLA-A2 expression was quantified as fluorescence index (FI) according to the following formula: FI=[(mean fluorescence intensity with peptide−mean fluorescence intensity without peptide)/mean fluorescence intensity without peptide]. Background fluorescence without BB7.2 was subtracted for each individual value. To compare the different peptides, FI0.5 (the peptide concentration that increases HLA-A2.1 expression by 50% over no peptide control background) was calculated from the titration curve for each peptide.
FIGS. 2A-2C are graphs showing binding affinity of substituted POTE peptides to HLA-A2 molecules. Shown are binding affinities of the substituted POTE 252 peptides (FIG. 2A), the substituted POTE 553 peptides (FIG. 2B) and the substituted POTE 323 peptides (FIG. 2C) to HLA-A2 molecules. Different concentrations of peptides were added into the culture of TAP-deficient T2 cells. After overnight culture of the cells in medium supplemented with β2-microglobulin, cells were stained with anti-HLA-A2 antibody.
Peptide binding capacity to the HLA-A2 molecule was measured by using the T2 cell line according to a protocol described previously (Peters et al., Bioinformatics 19(14):1765-1772, 2003). T2 cells (3×10^5 cells/well) were incubated overnight in 96-well plates with culture medium (1:1 mixture of RPMI 1640/Eagle-Hank's amino acid containing 2.5% fetal bovine serum, 100 U/ml penicillin, and 100 μg/ml streptomycin) with 10 μg/ml β2-microglobulin (Sigma) and different titrated concentrations of peptides (starting from 100 μM with 2-fold serial dilution) as shown in the figures to determine the concentration giving a 50% increasing in binding. Cells were washed once with cold HBSS containing 0.1% BSA and incubated for 30 minutes at 4° C. with anti-HLA-A2.1 BB7.2 monoclonal antibody (1:40 dilution from hybridoma supernatant). After washing, cells were stained with FITC-labeled goat anti-mouse immunoglobulin (BD, San Jose, Calif.), and the level of HLA expression was measured by flow cytometry. HLA-A2 expression was quantified as fluorescence index (FI) according to the following formula: FI=[(geometric mean fluorescence intensity with peptide-geometric mean fluorescence intensity without peptide)/geometric mean fluorescence intensity without peptide]. Background fluorescence without BB7.2 was subtracted for each individual value. To compare the different peptides, FI0.5, the peptide concentration that increases HLA-A2.1 expression by 50% over no peptide control background, was calculated from the titration curve for each peptide.

Assay [1] concerns IFN-γ secreting spleen cells. Put plainly: ex vivo IFN-γ ELISPOT assay on splenocytes of peptide-immunized AAD mice. The assay is classed as in vivo. The following applies: for IFN-γ response (ELISPOT spots) on stimulation with the immunizing peptide: AAD mice immunized s.c., splenocytes pooled from three mice two weeks after boost. As to the method: (§1) FIGS. 3A and 3B are graphs showing immunogenicity of the wild type and enhanced POTE 252 epitopes in AAD mice. AAD mice were immunized subcutaneously with a mixture of peptide and cytokines in adjuvant as described in Example 1. (FIG. 3A) Two weeks after the second boost, splenocytes pooled from three mice were restimulated with splenocytes of naïve AAD mice pulsed with 1.0 μM of each peptide at different effector to target (E/T) ratios. Cells were cultured in anti-mouse IFN-γ antibody coated ELISPOT™ plates. After overnight culture, biotinylated anti-mouse IFN-γ antibodies were added to each well. ELISPOT™ substrates were added to develop the color and spots were counted by an ELISPOT™ reader (AID ELISPOT™ reader system). Figures show numbers of spots per million cells. (FIG. 3B) CTL cross-reactivity on each peptide. Two weeks after the second boost, pooled spleen cells from three mice were restimulated with irradiated splenocytes pulsed with 1.0 μM of peptide for 7 days. In a 4-hour ^51Cr release assay, CIR.AAD cells were pulsed with 1.0 μM of peptide and labeled with ^51Cr. After washing three times, target cells were mixed with different numbers of effector cells and then cultured for 4 hours before harvesting.
(§2) FIGS. 4A-4D are graphs showing immunogenicity of the wild type and enhanced POTE 553 epitopes in AAD mice. AAD mice were immunized subcutaneously with a mixture of peptide and cytokines in adjuvant. (FIGS. 4A and 4B) Two weeks after the second boost, splenocytes pooled from three mice were restimulated with splenocytes of naïve AAD mice pulsed with 10 nM to 1.0 μM of each peptide at different E/T ratios. Cells were cultured in anti-mouse IFN-γ antibody coated ELISPOT™ plates. After overnight culture, biotinylated anti-mouse IFN-γ antibodies were added to each well. ELISPOT™ substrates were added to develop color and spots were counted by an ELISPOT™ reader (AID ELISPOT™ reader system). Figures show numbers of spots per million cells. (FIGS. 4C and 4D) CTL cross-reactivity on each peptide. Two weeks after the second boost, pooled spleen cells from three mice were restimulated with irradiated splenocytes pulsed with 1.0 μM of peptide for 7 days. In a 4-hour ^51Cr release assay, CIR.AAD cells were pulsed with 1.0 μM of peptide and labeled with ^51Cr. After washing three times, target cells were mixed with different numbers of effector cells and then cultured for 4 hours before harvesting.
(§3) FIGS. 5A and 5B are graphs showing immunogenicity of the POTE 272 epitope in AAD mice. AAD mice were immunized subcutaneously with a mixture of peptide and cytokines in adjuvant. (FIG. 5A) Two weeks after the second boost, splenocytes pooled from three mice were restimulated with splenocytes of naïve AAD mice pulsed with 1.0 μM POTE 272 peptide at different E/T ratios. Cells were cultured in anti-mouse IFN-γ antibody coated ELISPOT™ plates. After overnight culture, biotinylated anti-mouse IFN-γ antibodies were added in each well. ELISPOT™ substrates were added to develop color and spots were counted by an ELISPOT™ reader (AID ELISPOT™ reader system). Figures show numbers of spots per million cells. (FIG. 5B) CTL reactivity on POTE 272 peptide. Two weeks after the second boost, pooled spleen cells from three mice were restimulated with irradiated splenocytes pulsed with 1.0 μM POTE 272 peptide for 7 days. In a 4-hour ^51Cr release assay, CIR.AAD cells were pulsed with 1.0 μM POTE 272 peptide and labeled with ^51Cr. After washing three times, target cells were mixed with different numbers of effector cells and then cultured for 4 hours before harvesting.
(§4) FIGS. 6A and 6B are graphs showing immunogenicity of the wild type and enhanced POTE 323 epitopes in AAD mice. AAD mice were immunized subcutaneously with a mixture of peptide and cytokines in adjuvant. (FIG. 6A) Two weeks after the second boost, splenocytes pooled from three mice were restimulated with splenocytes of naïve AAD mice pulsed with 1.0 μM of each peptide at different E/T ratios. […]

Assay [2] has as its system C1R.AAD cells pulsed with peptide. Kind of assay: 4-hour 51Cr release CTL assay after one week in vitro stimulation. It counts as cell-based, human. As to conditions: CTLs from immunized AAD mice, restimulated 7 days with 1.0 μM peptide; targets pulsed with 1.0 μM peptide. The procedure:
as §1, §2, §3, §4

[3] abbreviates: substituted peptides and their wild types, Table 2 / FIGS. 2A-2C.
Setting [4] is: wild-type peptides, Table 1 / FIG. 1.

Regarding “KLAAKALLL [POTE 252-3A, modified POTE 252 peptide, alanine at position 3]”, in the assay with HLA-A2 molecule (setting [3]), the FI0.5 stood at 16.9 µM.
Still for that read-out and setting: under “KLFAKALLL [POTE 252-3F, modified POTE 252 peptide, phenylalanine at position 3]” stands 1.5 µM; under “LLLEQNADV [POTE 323-7A, modified POTE 323 peptide, alanine at position 7]”, 2.78 µM; under “LLAEQNVDV [POTE 323-3A, modified POTE 323 peptide, alanine at position 3]”, 0.4 µM.
“GLTPLLLGV [POTE 272-280, unmodified 9-mer peptide, residues 272-280 of human POTE]”: the “binding affinity for the HLA-A2 molecule (in words)” value (from here on “binding affinity”) with HLA-A2 molecule is reported as “strongest HLA-A2 binding affinity”. Further, in the assay with HLA-A2 molecule (setting [4]), the FI0.5 is roughly 0.9 µM. Moreover, in assay [1], the “IFN-γ response (ELISPOT spots) on stimulation with the immunizing peptide” value (shortened to “IFN-γ response (ELISPOT spots)”) is reported as “induced significant IFN-γ responses”. Moreover, the “CTL lysis of peptide-pulsed target cells” value in assay [2] was “lysed target cells pulsed with POTE 272”.
“KLLEEIESV [POTE 553-2L, modified POTE 553 peptide, leucine at position 2]” gave an FI0.5 with HLA-A2 molecule (setting [3]) of 0.1 µM. In addition, the “IFN-γ ELISPOT cross-reactive response to the wild type peptide” value in assay [1] (AAD mice immunized s.c. with the enhanced peptide) is given as “no cross-reactive response to wild type peptide was detected”. Further, the “IFN-γ response (ELISPOT spots)” value in assay [1] was “induced some extent of IFN-γ responses only after stimulation with the same peptide”. For the same sequence, the “CTL lysis of peptide-pulsed target cells” value in assay [2] is “did not lyse target cells pulsed with POTE 553-2L”.
In the case of “KIFEEIESV [POTE 553-3F, modified POTE 553 peptide, phenylalanine at position 3]”, the FI0.5 with HLA-A2 molecule (setting [3]) stood at 0.3 µM.
Consider “KILEEIESV [POTE 553-561, unmodified 9-mer peptide, residues 553-561 of human POTE]”, for which, in the assay with HLA-A2 molecule, the “binding affinity” value is “strongest HLA-A2 binding affinity; also recorded: intermediate binders”. The FI0.5 with HLA-A2 molecule (setting [3]) is 2.6 µM; with HLA-A2 molecule (setting [4]), roughly 5.6 µM. The “IFN-γ response (ELISPOT spots)” value in assay [1] is recorded as “did not induce any significant IFN-γ responses”. The “CTL lysis of peptide-pulsed target cells” value in assay [2] is recorded as “not any significant detectable target cell lysis”.
Regarding “YLMAKALLL [POTE 252-1Y, modified POTE 252 peptide, tyrosine at position 1]”, the FI0.5 in the assay with HLA-A2 molecule (setting [3]) came to 0.9 µM. Besides, the “IFN-γ response (ELISPOT spots)” value in assay [1] is “no significant IFN-γ responses were detected”. Besides, the “CTL lysis of peptide-pulsed target cells” value in assay [2] is recorded as “not detectable”.
“KILEEIASV [POTE-553-7A, modified POTE 553 peptide, alanine at position 7]” showed an FI0.5 with HLA-A2 molecule (setting [3]) of 0.2 µM.
Turning to VLMLLEHGA [POTE 222-230], the “binding affinity” value at HLA-A2 molecule is “weak binder”. In addition, at HLA-A2 molecule (setting [4]), the FI0.5 result is reported as “approximately 42.4 μM”.
As to “LLLEQNVDV [POTE 323-331, unmodified 9-mer peptide, residues 323-331 of human POTE]”, in the assay with HLA-A2 molecule, the “binding affinity” value was “intermediate binders; also recorded: strongest binding affinity”. Further, the FI0.5 with HLA-A2 molecule (setting [3]) was 0.3 µM; with HLA-A2 molecule (setting [4]) it was roughly 0.8 µM. Also, in assay [1], the “IFN-γ response (ELISPOT spots)” value is given as “induced some IFN-γ responses after stimulation with the identical peptide”. Moreover, the “IFN-γ response over background level” value in assay [1] (AAD mice, ELISPOT) is recorded as “less than 2 fold”. For the same sequence, the “CTL lysis of peptide-pulsed target cells” value in assay [2] was “did not lyse target cells pulsed with POTE 323”.
“KLMAKAALL [POTE 252-7A, modified POTE 252 peptide, alanine at position 7]” came in with an FI0.5 with HLA-A2 molecule (setting [3]) of 4 µM.
The same measure, in the same setting: as for “YLLEQNVDV [POTE 323-1Y, modified POTE 323 peptide, tyrosine at position 1]”, the figure is 0.25 µM.

For the origin of these results see patent US9394352B2, “Immunogenic POTE peptides and methods of use” (The United States of America, as represented by the …, priority 2010, dated 2016).
